Test results taken from the DeepSol protein solubility set.

assay: soluble on expression in E. coli; label from the status in PepcDB or PDB records

Soluble on expression in E. coli, not soluble:
MGSDKIHHHHHHMENAPEPIETVKKGKCKVECQNKERFILIEKENGKAMYHTKIMMDIYKFGVYEKKHEFRLSLRALFNGERIVEETHLYPIKEGDKFIGIFYGYRKPIKKPLIKYQINGTKKAYALARAYYMEFRFKAGSVFCYFKGLYRLLDKKRTNNHYNKVLFSMFTDLEQQVYKFYGKKYPEQGPLIKWILKNLK
MGSDKIHHHHHHMENHTDIETLLTKYFEGNTTPPENEQIEAWLNADEEHLRIAKQLNTLYLAVDTQHITKKIDTEKALDKVKSRTKVRNLSWWGWTQRIAAILSVPLLIGVLALYPDRQQPVVTAQMVEIKTNAGMTTSVLLPDSTVVHLNSESSLRYPTFFAGDVRQVELNGEAYFDVTQHPRKRFIVSTPHHSQVEVYGTSFNVEAYGNETPISTTLIEGSVGFIYKNSKGKFQKSMLSPRQKLVYSPQTGDIKCYATSGESEISWKDGKLIFNDTPLDEVLHMLGKRFNVEFVLSNKGLKGCSFTGTFTHQRLERIMEYFRISSHIRWRYIDSADIKTEKLKIEVY
MGSDKIHHHHHHMENKSAVQLYLELLKKTILFEIWLEYEPYLPASLHISKELSYEPVTVPLPLFLKQYVENHNLKIVNPNVSNNERQGGKDWPRAAHSMVGRKRMNQLQEAMETVVRENIEGDFIETGVWRGGSCIFMNGFLQANNIYYRTVWVADSFEGLPAPNLEQYPKDYGDYLHTFDYLRVSLETVQENFRKYDLLNDQVKFLKGWFKDTLPSAPVEKIAIARLDGDMYESTMDSLVNLYDKVSTGGFIIIDDYGLITCAEAVTDFRSERNIKTPMTQIDDFGIYWRKE
MGSDKIHHHHHHMEPIIEIENFSAYYGEKIAVKNVTMKIFKNQITAIIGPSGCGKTTLLRSINRMNDHLPGFRVEGKIYFKGQDIYDPQLDVTEYRKRVGMVFQKPTPFPMSIYDNVAFGPRIHGVKSKHILDRIVEESLKKAALWDEVKSELNKSGTRLSGGQQQRLCIARALAVEPEVILLDEPTSALDPIATQRIEKLLEELSENYTIVIVTHNIGQAIRIADYIAFMYRGELIEYGPTREIVERPKNRLTEEYLTGKIG
MGSDKIHHHHHHMEQLPILNLSDWHAGGQSRHAFITKLADAARRIGFFYLTGHGIELARQQQVLLLARDFFALPLADKLAVKMTNTPHFRGYTRLQGELTLGKPDLREQFDIMQEETANPPRSDVPKWSQLQGPNQWPSQLPQMKTILLEWQQDLADTSVALLKALAVALEQSETAFDATIDAGPYQHMKLIRYPNANGETSGQGVGAHKDPGYLTLVLQDKQSGLEVQTDEGWLSIPPLEGAFVVNIGELLELASNGYLKATYHRVTSPPAGVERYSCAFFMAAQLNATVPLLPLPEYLARQALGPASDPLNPLFHQVGQNVLKGRLRSHPDVAKAHYASFANAI
MGSDKIHHHHHHMERFFIVGCGDIGKKVARIALADGAGVAALIRSPEKAESLREMGVTALEANLDERDSLAGMPTRGAVVFYFAPPPGGGVTDPRVRAFCDAIAPGEEPRKIVYLSTSGVYGDCGGDVVTEETPPNPQTSRARRRYDAETVFRQWGAERGVPVVILRVTGIYGPGRLPLQQLTSGQPVLEESLAPFTNRIHSEDLARICLAAAEHGEDGDIFNVSDGHPTTMTAYFDACADALGLPRPRRVTLEEARRVMTPLMFSYVTESRKMDNRLMREKLHVTLLYPTMQEGVRSSVA
MGSDKIHHHHHHMERKTVLVIADLGGCPPHMFYKSAAEKYNLVSFIPRPFAITASHAALIEKYSVAVIKDKDYFKSLADFEHPDSIYWAHEDHNKPEEEVVEQIVKVAEMFGADAITTNNELFIAPMAKACERLGLRGAGVQAAENARDKNKMRDAFNKAGVKSIKNKRVTTLEDFRAALEEIGTPLILKPTYLASSIGVTLITDTETAEDEFNRVNDYLKSINVPKAVTFEAPFIAEEFLQGEYGDWYQTEGYSDYISIEGIMADGEYFPIAIHDKTPQIGFTETSHITPSILDEEAKKKIVEAAKKANEGLGLQNCATHTEIKLMKNREPGLIESAARFAGWNMIPNIKKVFGLDMAQLLLDVLCFGKDADLPDGLLDQEPYYVADCHLYPQHFKQNGQIPETAEDLVIEAIDIPDGLLKGDTEIVSFSAATPGTSVDLTLFEAFNSIAAFELKGSNSQDVAESIRQIQQHAKLTAKYVLPV
MGSDKIHHHHHHMERNTRVVKVANLKIGGNNPIIIQSMTNTNSADVEATVKQINNLEKVGCQLVRMTINNIKAAEAIKEIKKKVSLPLVADIHFDYRLALLAIKNGIDKLRINPGNIGSDENVKKVVEAAKEKNIPIRIGVNSGSIEKEILEKYGKPCVDALVESAMYHIRLLEKFDFFDIIVSLKSSNVKMMVEAYRKISSLVDYPLHLGVTEAGTKFQGTVKSAIGIGALLVDGIGDTLRVSLTENPVEEIKVAKEILKVLDLSDEGVEIISCPTCGRTEIDLIGLAKQVEEEFRTKKNKFKIAVMGCVVNGPGEAREADYGIAAGRGIGILFKKGEIIKKVSESNLLEELKKMISEDLENKKD
MGSDKIHHHHHHMERPILGKYIIKGKIILETGLRIGGQELGVNIGGIDNPVIRNPLTGEPYIPGSSVKGKMRSLMERLLNLDISGNKVRRHECEERECKVCRVFGSTSKEGNNIPSRLLVRDAFLTEDSKTKLLSMETDLPYTEWKTENALDRVTCKADPRSFERIPAGAEFEFEIIYTAENEKHIKEDLENIATALELLEDDYLGGNGSRGYGKVKFSIEKVIFKSADYYKGEGTPVEKEVKGGVEGFKKAIPEIVKG
MGSDKIHHHHHHMERVHVDIRQLQFFAEIVRYGSFTKAAERLHVAQPAVSMAMKKLEEELDLILFNRQERRISLTAEGEIFLRHAEKILDEVKSAETEMEELRGLAKGEVRVGIPPMMSAYFFPEIIRDFSNSYPDLHLTVSGEGASKIQKMIIDGELDMGVVAGASFPETLEVRRFLREEVIVCVPRSHPLASRGSLTLHEFARHPLIFYREGYYLRELILDVLRGAGLSPTIRFETNLYTLVKSLVQKGMGISVFLRMVVAEDDDLTAISLDPPLFLDLLIAWKKHGYLSRANRAFADYLLEKGSSAAL
MGSDKIHHHHHHMETLELQGAKLRYHQVGQGPVLIFIPGANGTGNIFLPLAEQLKDHFTVVAVDRRDYGESELTEPLPDSASNPDSDYRVKRDAQDIAELAKSLSDEPVYILGSSSGSIVAMHVLKDYPEVVKKIAFHEPPINTFLPDSTYWKDKNDDIVHQILTEGLEKGMKTFGETLNIAPIDAKMMSQPADTEEGRIEQYKRTMFWSEFEIRQYTHSDITLDDFTKYSDKITLLNGTDSRGSFPQDVNFYINKETGIPIVDIPGGHLGYIQKPEGFADVLLNMWG
MGSDKIHHHHHHMETLISGKNLKAYYVLDLWGSKKVVKAVDNVSLDILPNEIYGIAGESGCGKSTLLKALLALLDPPLRLMDGELLYNIEGRPTNVTLLKSETIRKLRWSFISYIPQGSMHVLNPVKRVRDTFIEILSSHVKKQTKEFLDLAVQHLKDLGLPERVLNMFPHQLSGGMRQRVTIALATVLKPRVIFADEPTTALDVVAQRAVMQLIRKIQNDLKNTVVLVTHDMGVHAQITTRMAIMYAGKIVEEGPTLEIFKNPLHPYTRYLIQSLPAIGDKKLRSGIPGSPPSLVAPPPGCRFHPRCPHASQRCREEEPLLKEIKPGHKVACFLMEG
MGSDKIHHHHHHMFAITGITGQVGGVVARALLAAGKDVRAVVRSAAKGAQWKEQGCEIAVAEMSDTQALSGAFSGVDGVFILLPPNFDPSPDFAESRHLVGTLRDALKQANPPKVVCLSTIGAQAAQPNLLQQLGYMEQQLGSLPMPIAFLRAGWFIENAAWDVEPARTAGVIPSFLQPLDKPVPMVATADVGRVAASMLQQAWTGKRIVELEGPRRITPNDLANTFARLLGKDVRMETVPRDTWEALFKSQGMKNPVPRMQMLDGFNEGWIEFETPDQTIKGNVTLETVLQSLIERVG
MGSDKIHHHHHHMFEVFNYEDIICARGNREMPWKPSFQMNVYYYLIDGLLIDSGPYSLAKEAIEFFNAHIIEQVFLSHIHEDHAGMAYWLQEKMQIPIYLHEGSLEEARREPELAKYRLGIWGRRKAFNAEPINDTIKTGSYVFDVIDSPGHCPYHKVLHEKTKGWLFSGDLLNNLKPKSVMFDENTNDTILSIRKVLDLDFTTVFCAHTGIRKNAKNLFLKKLNYLLELQKDTQVLRNRGFSNTEIVEQLFPGPDPISSLSGGEFSSYYLVSTL
MGSDKIHHHHHHMFGYVKINKMDLTFREYDYYKAYYCGLCKYLKRNHGEISRFSLNYDITFLIVLLTAVYNPESISTEEVCIVNPFKKKKVITNDITEYAASMNILLTYYKLEDNLMDDKRIKDKLAYYIYKNKLKLAYEKYPEKAEYIKQQLNELNKLEKDKNINIDEVSSIFGNIMGEVFVYKKDENERNLRMIGFNIGKYIYLLDAYEDLDEDFKKGRYNPFIEYIDKNDELKEKVKKIIVTSLGFLARGIDNLNLNKNVGIIENIIYSGVYLRYINILESRGGKNVQ
MGSDKIHHHHHHMFKESPIIRRVSRQIMVGNVPVGGDAPITVQSMTNTLTTDVAATVAQIKALEAVGADIVRVSVPTMDAAEAFREIKKQVNVPLVADIHFDYRIALKVAEYGVDCLRINPGNIGNENRIRSVVECARDNNIPIRIGVNGGSLEKDIQEKYTEPTPEALLESAMRHVDILDRLNFNEFKVSVKASDVFLAVESYKLLAKQIDNPLHLGITEAGGLRSGSVKSSVGLGLLLAQGIGDTIRISLAADPIEEIKVGFDILKSLKLRSRGINLIACPSCSRQEFDVVSTVNALEQRIEDIMTPMDVSIIGCIVNGPGEAMVSDLGLTGSSKKSGYYLDGIRQKERFDNTDLVDQLEQRIRAKARSMSERLDEKNKIDILTKD
MGSDKIHHHHHHMFKTAVGHSNDPDSLSAIEEVLQQCVSSLGGDIPKAGILFSAIDFEHALILQQIHQFFPGIELIGGTTDGEISSVLEFQQDSITLMLFCSDEVEINAGVGRKVSVDPIAVTKQAVEQAKAKTTETPRLCLTHPESLTISGVSILHGLKLALGQNVPIFGGLAGDQSRYQNTYQFFQTEVLSDSVPILLFSGTILFSHGVASGWHPIGQISQVTKVDKNILYEIDGKPALDFYHHYLGLLPPSMEYPLAVFDQNRDNFYIRAPIAYNQDSGSITFFADIPDRAVIQIAEACYEDILAASKASFMNALNNYPGAEPSAVLFFSCVARRQILGTRAKEEYQNTKLCLTYHLPGCGFYSYGEIAPIDGMSQTQFHNETFVTLILGTR
MGSDKIHHHHHHMFLMVIINPTDGMSAMSAPLDTDQLQTFIAIVDTGSFTKAAGRVFKTQSAVSMQMRRLEERIGKQLFIKDGRGNRLTAEGEKLLNYARRIVRLNSEAIAAFDDNRLEGTLRIGTPDDYADRYMPEIIGRFAKTHPNVELYIVCEPSSDLAEKMARGELDIALVTHNPATRQSDVMRTEPLCWVASANHPLRDDAPVPLAVGRRDCNWRQLACSALDADGRDYQILFTSWSSTVVAAAVLAGLAVSVLPESALRTGMKVLGQLDGFPPLPPVQIGIMKRPGMSPSLMNAITDHIAACLDNINPTAIEDDMDGETKTYSRYYPRLRAGHMIPGW

Soluble on expression in E. coli, soluble:
MGSDKIHHHHHHMEMRFFVLGAGSWGTVFAQMLHENGEEVILWARRKEIVDLINVSHTSPYVEESKITVRATNDLEEIKKEDILVIAIPVQYIREHLLRLPVKPSMVLNLSKGIEIKTGKRVSEIVEEILGCPYAVLSGPSHAEEVAKKLPTAVTLAGENSKELQKRISTEYFRVYTCEDVVGVEIAGALKNVIAIAAGILDGFGGWDNAKAALETRGIYEIARFGMFFGADQKTFMGLAGIGDLMVTCNSRYSRNRRFGELIARGFNPLKLLESSNQVVEGAFTVKAVMKIAKENKIDMPISEEVYRVVYEGKPPLQSMRDLMRRSLKDEFWAS
